Assay results published in article PMC4074040.

Biological target: BBPLo, bilin-binding protein from Lonomia obliqua (a variant of lopap) (Lonomia obliqua)
Test: SEC; analytical gel filtration of recombinant, refolded BBPLo on Superdex 75, calibrated with standards (myoglobin, NP2, IPP, BSA); monomers to dimer

BBPLo, bilin-binding protein from Lonomia obliqua (a variant of lopap) (natural protein)
stoichiometry N: 2
